A short description of the series: soluble on expression in E. coli; label from the status in PepcDB or PDB records.
With “MSLNDNNTILGFDVNLICDFFLNTERQGPGSPEVTLKALSFIDNLTNKSLIADLGCGTGGQTMILAQHVPGKITGIDFFPGFIERFNKNAEKLNLQNRVKGIVGSMDDLSFEKDSLDLIWSEGAIYNIGFERGLKEWRNYLKPGGYLAVSESVWFTDQRPAEIHDFWMSAYTEIDTVPNKVAQIQKAGYIPVATFILPENCWIEHYFAPQAKAEEIFRRKHAGSRIVEELITSNHHEAELYSKYKAYYGYAFFICKKGFSLREGHHHHHH”, the “soluble on expression in E. coli” value is “soluble”.

For the sequence “MSLNDRTTTHGETEPRSEQPGIRAAAGPGRWHDVELMAYKPDDAAPFRSVTRQVLFSDLRLGCEWRYFEVAEGGYSTLERHQHVHATMIHRGRGQCLVGDVISDVAVGDLVFIPPMTWHQFRANAGDVLGFLCLVNADRDRPQLPRPDELAVLRQNKAIASFIGAEAEGHHHHHH”, the “soluble on expression in E. coli” value is given as “soluble”.

Take “MSLNEESFEEFSMVLEDDLVGGTFSKVGEHNKRENEDFYITKDILDLNNVSESQGLCFYSGIFDGHGGSNCARYVMNHLKTNVIAKFRQSFLITCKKKFKEKGSKLNELSVELRALYDSCIKGFDMTDKNYIELSKKYNYKDGSTACIVLIYGPDDDGSLKVLCANCGDSGAFICHNKKPIKLSLRHKPDLQEERIRILKCGGIIANINGINRIITKHKDRNNLNENNNNKSKEKTFLALSTSRSFGDISYKIPRKIVQCKPFISVYTIDFDLDSFLVLATDGILNVLSDEEIIDIIWKNIHRKPEQAAEEVVNEATRRGSTDDKTCTVIFFYWRKEGHHHHHH”: the “soluble on expression in E. coli” value is on record as “soluble”.

Take “MSLNEESYLVNRGKGVVRYDVVQVPSNSPIEDDHAEKIVEVPASTSAANEGQSSSDWMFWAVFDGHSGWTTSAKLRNVLISYVARELNATYKSASSDPSLVLPSSEAVDAAIKQGFVRLDNDIVHGSVNQVFKSNSRRAAAELLAPALSGSCALLAFYDSQTRDLKVACAGDSRAVLGRRSENGKWTATPLSEDQTGGTPSEMKRLREEHPGEPNVVRNGRILGQLEPSRSFGDAFYKWSKETQEKIKRQFFGRTPHPLLKTPPYVTAEPIITTTKVDPSQGDFLVLATDGLWEMLSNEEVVGLVGQWIEEQKAAAGAGTGNKSWVRSLFGSQPTEGHHHHHH”: the “soluble on expression in E. coli” value is on record as “soluble”.

In the case of “MSLNELRKRVEIERSLHEAEFKALSYQINPHFLFNVLNTIGRLAFLEDAQRTETMVHDFSDMMRYLLRKNSHGLITLRNEINYVNNYMSIQKVRMRDRFDYLCDIPEKYLDVVCPFLILQPLVENFFNYVVEPRDSNSHLLIRATDDGLNVIIEVTDNGDGIAPDTINRILSGDQKLQKGSIGINNIKNRLKLLFGESYGLEIMSPNKPRMGTTIKLRFPMQEAEGHHHHHH”, the “soluble on expression in E. coli” value is listed as “soluble”.

Regarding “MSLNGLNSECHFYQTDGDIVVRCAQINDAERLSQYFVDNRSHLIEWEPRREAEFFTESGWLQRLIKLNELHKMKLGYYLLILDAQNDAMLGTISFSNIIRFPFHACNVGYSLAYEAQGKGIMTRALTMACQYMFSEHNMHRIMASYIPHNKRSENVLKRVGFVLEGHAKDYLLINGKWEDHNLTSLINPNWKEEGHHHHHH”, the “soluble on expression in E. coli” value was “soluble”.

On to “MSLNIFNSVKKAEIHVHLEATITPDLCKKFAKRNNHEIPEEMFGSEYAYQWDDFYDFIKKYDIVTSVIHTPEDYFELTYEYLKDCAANNVLYVEAMISSTHAKEKGMTYNSFIEGVYEASKKAEEDFGIVSRYIMNGIRHLGPESVQGTAEEVLNNPHPCLVGFGLAGDELHFPPNLFVETFDMLKKENFPITVHAGEWDGPVNIRNAINLLHPTRLGHGVRSIEDPDLVKEIIDKDIILETCPTSNVATKIYKDYIDHPVKTLFDQGVKVTVNSDDPPFFKCTINGEYKVMEDLGEGHHHHHH”, for which the “soluble on expression in E. coli” value is on record as “soluble”.

As to “MSLNITPHDQTGSQLQDSTLSQRAIQTVRYINNINDWRYNNPSQKDGVIPDSAFGWSSLPELHNVLQADRVYVYQPDQPGLMSALLAQSRHSALVGKVVARRLLDSFGNDMQVNVPDSIADGSLVYLNEGHHHHHH”, the “soluble on expression in E. coli” value is reported as “soluble”.

In the case of “MSLNKKVVIDDVAKLAGVSKATISRYLNGKFEYMSEKTKDRIKESIEELNYRPNNIARSLKSNKSKLIGVVIADLTNPFSSIIIKGIGDECKARGYNMVIANSDNDVKQEEEYIKSLLDQRVEGIIVNSTGYNEEFLLSIKERGIPVSMVDRTFCEDKVDSVKSNNYDITVETINYLIDAGFNSLCFFTERLDNIKPRIERERAFIDVCSKRLKKENYNISVVDYSKAGNLEVNIYKFLNNYSGKKAIFAVNGVVLLHTLSAINKLNINVPKDLGICGYDNWGWAALIPPGITTISQPSYEMGSEAAKLVLDRIEGKASLGAVCKTLSAKLEIRGSTIPLNEGHHHHHH”, the “soluble on expression in E. coli” value was “not soluble”.

For “MSLNKLCVAALSVNNFCDNREALYGVFDGDRNVEVPYLLQCTMSDILAEELQKTKNEEEYMVNTFIVMQRKLGTAGQKLGGAAVLCHIKHDPVDPGGSFTLTSANVGKCQTVLCRNGKPLPLSRSYIMSCEEELKRIKQHKAIITEDGKVNGVTESTRILGYTFLHPSVVPRPHVQSVLLTPQDEFFILGSKGLWDSLSVEEAVEAVRNVPDALAAAKKLCTLAQSYGCHDSISAVVVQLSVTEDEGHHHHHH”, the “soluble on expression in E. coli” value is on record as “not soluble”.

For “MSLNLVSEQLLAANGLNHQDLFAILGQLAERRLDYGDLYFQSSYHESWVLEDRIIKDGSYNIDQGVGVRAISGEKTGFAYADQISLLALEQSAQAARTIVRENGEGKVKTLAAVAHQPLYTTLDPLQSMSREEKLDILRRVDKAAREADKRVQEVNASLTGVYELILVAATDGTLAADVRPLVRLSVSVQVEEDGKRERGASGGGGRFGYEYFLADLDGEVRADAWAKEAVRMALVNLSAVAAPAGTLPVVLGAGWPGVLLHEAVGHGLEGDFNRRGTSVFSGQIGEQVASALCTVVDDGTMMNRRGSVAIDDEGTPGQYNVLIENGVLKGYMQDKLNARLMGAAPTGNGRRESYAHLPMPRMTNTYMLAGQSTPQEIIESVEYGIYAPNFGGGQVDITSGKFVFSTSEAYLIENGKVTTPVKGATLIGSGIETMQQISMVGNDLKLDNGVGVCGKEGQSLPVGVGQPTLKVDNLTVGGTA”, the “soluble on expression in E. coli” value was “not soluble”.

On to “MSLNMKTFKFFTALFATAILTACTLDMERPTNVQYIDKTDAIWQQHLQKIQKIQSYQAKGQIGYISPTERFSSRFEWQYQNPKSYTLKLYSLISKSTLWIQMHQSGMTISDNNGNQQSAANSKLLLQEIIGMDVPLEHLAYWLKGQPAMNADYQVGTNHLLGAFTYHVDGSQWTADYLTYHSNNSMPENILLKNDSTKQTLKIRVDEWIYEGGSHHHHHH”, for which the “soluble on expression in E. coli” value is on record as “soluble”.

Take “MSLNMKVLITASSRGIGFNLAKELLNKGHEVTITSSNIRNIENAYKELRELGTVHYFQADLSSKEDIKRMVKDAWDAMGRIEALIWNAPNVKCEPCMVHEARYRDWLEAALLHLVSPGYITTLLIQAWLEKKIKGVLIYLSSASVLEPMPPLLLADTARAGLVQLTKGITRAYGGKGIRAYVVLLGSFDTPGARENLAKIAEERGMSLEEIWRKEVIERTPLKRTGKWSELGALIDFLLSENAEYMMGSTILFDGAMTRGVNEGHHHHHH”: the “soluble on expression in E. coli” value is given as “not soluble”.

For “MSLNNLNTNIDFIKKSPKTELHLHIEGSLEPELMFKLSKRNKIEIPFKSVDEIRSAYNFTNLDSFLKIYYEGSNVLIREEDFFDLTWEYVLRCKQDNIVHTEIFFDPQSHLPRGISFETVINGIDKALKKAEKDFGISSKIIMCFLRHLDEESCFDVLKKAFDHKDKIIGVGLDSSEKGNPPSKFKRLFEQAVKEGFITVAHAGEEGPPEYIWDSLDILKVKRIDHGVQCLNDEKLVNKLVKEQIPLTVCPLSNVKLCVFDKLENHNLKKMLDKGLRVMVNSDDPAYFGGYLNKNLIETSRALNLNLVDIKKLIENSFKSSFLEKEKKENWLKKINEGHHHHHH”, the “soluble on expression in E. coli” value is recorded as “soluble”.

Regarding “MSLNNMIQVAIIGAGFIGPAHLEALRRLGDVEVVALCDSRLEAAQRKARALNIAHAYDSVEALLAHPGLQVVHNCTPNHLHAQINRQILAAGLHVFSEKPLCMTAGEARELVALAARAGVVHGVSFVYRQFAMVQQAAAMIRHGEVGRIFAAHGSYLQDWMLLETDYNWRVDSAQGGASRTVADIGSHWCDTVQFMTGRRIVEVMADLSIVWPTRKAPVNGKATFSAVHEAQAYETRPVDTEDFGSVLLRFDDGSKGSFMVSQVSAGRKNRLAVEINGSLCSLAWDQEVPQRLWIGHREQPDRLLSDDPSLLRPEIADSAHYPGGHIEGWPDAFKNMMGHFYQAVRAGKMPAAGARRFAAFDDGADVMYIIEAIVKSHQEQRWVSVEREGHHHHHH”, the “soluble on expression in E. coli” value was “soluble”.

For the origin of these results see the DeepSol protein solubility set.
